The target in test [1] is T1, A/Anhui/1/2005 HA globular head (Asp-55–Glu-271) (Influenza A virus A/Anhui/1/2005 (H5N1), UniProt Q1WDM0, strain). In words: cell-based or functional assay.
Test [2] concerns the target T2, A/Beijing/01/2003 HA globular head (Asp-55–Glu-271) (Influenza A virus A/Beijing/01/2003 …, UniProt A5YTS6, strain). Put plainly: cell-based or functional assay.
Test [3] concerns the target T1, A/Anhui/1/2005 HA globular head …. In words: SPR. The following applies: both partners purified.
The target in test [4] is T2, A/Beijing/01/2003 HA globular head …. In words: SPR. The following applies: both partners purified.
In test [5] the target is T3, A/Thailand/1(KAN-1)/2004 HA globular head (Asp-55–Glu-271) (Influenza A virus …, strain). Put plainly: cell-based or functional assay.
The target in test [6] is T4, A/Vietnam/1203/2004 HA globular head (Asp-55–Glu-271) (Influenza A virus A/Vietnam/1203/2004 …, UniProt Q5EP31, strain). Put plainly: cell-based or functional assay.
For test [7], the target named is A/Turkey/65596/2006 HA globular head (Asp-55–Glu-271) (Influenza A virus A/Turkey/65596/2006 …, strain). In words: cell-based or functional assay.
Test [8] addresses T3, A/Thailand/1(KAN-1)/2004 HA globular …. In words: SPR. Particulars: both partners purified.
The target of test [9] is T4, A/Vietnam/1203/2004 HA globular head …. In words: SPR. The following applies: both partners purified.

What is called Kd is the constant that tells how readily two partners part at equilibrium. A higher Kd goes with lower affinity.

B1: AVFluIgG03 (antibody, V domains shown)
VH: EVQLLESGGGLVQPGGSLRVSCTNSGFTFSNYAMSWVRQAPGKGLEWVSAISGNGGSGTYYADSVKGRFTISRDNSKNTMYLQMNSLRAEDTAVYYCVRDDSYDGGGHYGLHNWFDSWGQGTLVTVSS
VL: SVLTQPPSVSGAPGQRVTISCTGSSSNIGAGYDVHWYQQLPGTAPKLLIYGNSNRPSGVPDRFSGSKSGTSASLAITGLQAEDEADYYCQSYDSSVVVFGGGTKLEIK
Regarding B1, the entries for the “neutralisation IC50, pseudovirus with the whole HA of this strain” value in test [1] and in test [2] were 2 ng/mL and 3 ng/mL, respectively.

B2: AVFluIgG03 Fab (Fab, V domains shown)
VH: EVQLLESGGGLVQPGGSLRVSCTNSGFTFSNYAMSWVRQAPGKGLEWVSAISGNGGSGTYYADSVKGRFTISRDNSKNTMYLQMNSLRAEDTAVYYCVRDDSYDGGGHYGLHNWFDSWGQGTLVTVSS
VL: SVLTQPPSVSGAPGQRVTISCTGSSSNIGAGYDVHWYQQLPGTAPKLLIYGNSNRPSGVPDRFSGSKSGTSASLAITGLQAEDEADYYCQSYDSSVVVFGGGTKLEIK
notes: source: cut from the purified IgG with Lys-C
With B2, the Kd amounted to 12.6 nM in test [3] and 25 nM in test [4].

B3: FLD21.140 (antibody, V domains shown)
VH: QVQLQESGPGLVKPSQTLSLTCTVSGGSISSGTYYWSWIRHHPGKGLEWIGYIYHSGSAYYNPSLESRVTMSVDTSKNQFSLKLSSVTAADTAIYYCARAENLLSPYLAEGFDPWGQGTLVTVSS
VL: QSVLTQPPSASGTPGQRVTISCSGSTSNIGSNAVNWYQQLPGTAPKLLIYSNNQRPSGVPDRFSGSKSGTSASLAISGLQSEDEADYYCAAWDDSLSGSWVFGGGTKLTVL
As for B3, the results for the “neutralisation IC50, pseudovirus with the whole HA of this strain” value in test [5], in [6] and in test [7] were 8 ng/mL, 1 ng/mL and 1 ng/mL, respectively.

B4: FLD21.140 Fab (Fab, V domains shown)
VH: QVQLQESGPGLVKPSQTLSLTCTVSGGSISSGTYYWSWIRHHPGKGLEWIGYIYHSGSAYYNPSLESRVTMSVDTSKNQFSLKLSSVTAADTAIYYCARAENLLSPYLAEGFDPWGQGTLVTVSS
VL: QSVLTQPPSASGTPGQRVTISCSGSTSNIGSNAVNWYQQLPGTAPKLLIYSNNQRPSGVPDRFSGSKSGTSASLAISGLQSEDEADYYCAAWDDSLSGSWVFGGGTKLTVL
As to B4, the Kd in test [8] stood at 1 nM; in test [9], 0.702 nM.
